According to patent US20160257760A1 (OXFORD BIOTHERAPEUTICS, published 2016):

Assays:
Assay in all cases: peptide microarray, 1 µg/mL LY75_A1, anti-human IgG Alexa 647
KLSRLTYS = target: T1, KLSRLTYS
T1 peptide: KLSRLTYS
Experimental: (§1) The chip comprised three panels such that the experiment was performed in triplicate. […] The binding assay was performed under the following conditions:—The microarray comprising the contiguous peptides in triplicate was washed with 1 mL of binding buffer at 4° C. for 20 min. […] The array was again washed with 0.5 mL of washing buffer at 4° C. for 30 min.

KKLSRLTY = target: T2, KKLSRLTY
T2 peptide: KKLSRLTY
Experimental: as §1

EVKDCRSF = target: T3, EVKDCRSF
T3 peptide: EVKDCRSF
Experimental: as §1

RSFKALSI = target: T4, RSFKALSI
T4 peptide: RSFKALSI
Experimental: as §1

B1: LY75_A1 monoclonal antibody (antibody, V domains shown)
VH: EVQLVESGGGLVKPGGSLRLSCAASGFTYSNAWMSWVRQAPGKGLEWVGRIKSKTDGGTTDYAAPVQGRFTISRDDSKNTLYLQMNSLKTEDTAVYYCTIFGVVSFDYWGQGTLVTVSS
VL: DVQMTQSPSSLSASVGDRVTITCRASQSISDYLSWYQQRPGKAPNLLIYAASNLKTGVPSRFSGSGSGTDFTLTISTLQPEDFATYYCQQSYRSPWTFGQGTKVEIKR
notes: also called LY75A1 antibody; LY75_A1 antibody
KLSRLTYS
  binding result: binds
KKLSRLTY
  binding result: binds
EVKDCRSF
  binding result: binds
RSFKALSI
  binding result: no binding (tested: 1 µg/mL)
